A short description of the data set: self-splicing fitness, log relative to wild type (ln ratio); higher = more splicing; Tetrahymena group I intron in knt gene, E. coli kanamycin selection, DiMSum; sequences stand for … in CUCUCU…GGAGGGAAAAGUUAUCAGGCAUGCACCUGGUAGCUAGUCUUUAAACCAAUAGAUUGCAUCGGUUUAAAAGGCAAGACCGUCAAAUUGCGGGAAAGGGGUCAACAGCCGUUCAGUACCAAGUCUCAGGGGAAACUUUGAGAUGGCCUUGCAAAGGGUAUGGUAAUAAGCUGACGGACAUGGUCCUAACCACGCAGCCAAGUCCUAAGUCAACAGAUCUUCUGUUGAUAUGGAUGCAGUUCACAGACUAAAUGUCGGUCGGGGAAGAUGUAUUCUUCUCAUAAGAUAUAGUCGGACCUCUCCUUAAUGGGAGCUAGCGGAUGAAGUGAUGCAACACUGGAGCCGCUGGGAACUAAUUUGUAUGCGAAAGUAUAUUGAUUAGUUUUGGAGUACUCGUGGUCG
In outline: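 Pooled colonies went to amplicon sequencing on an Illumina HiSeq 2500 after six replicate transformations. The plates were LB agar with 100 μg/mL carbenicillin, 50 μM IPTG and 0.2% rhamnose, with or without 25 μg/mL kanamycin, incubated overnight at 37°C or 30°C. The E. coli BL21(DE3) library had all eight P1ex-region intron nucleotides randomised, the intron placed in the knt kanamycin-resistance gene on pET-22b(+). DiMSum fitness is the error-weighted combination of replicate fold changes, kanamycin against none, normalised to wild type.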

The values below come from the supplement of paper PMC7877785.

± gives the uncertainty stated by the source.

Take GGACAGCAAUAUUACGCUUG: the “self-splicing fitness (ln)” value reads like this: (30 °C) -1.45 ± 0.094; (37 °C) -0.762 ± 0.11.
Regarding AUGAAGCAAUAUUACGUUAA, the “self-splicing fitness (ln)” value runs as follows: (30 °C) -1.51 ± 0.084; (37 °C) -0.908 ± 0.1.
Turning to CGAUAGCAAUAUUACGACAG, the “self-splicing fitness (ln)” value is, setting by setting: (30 °C) 0.215 ± 0.1; (37 °C) 0.719 ± 0.12.
As to CUCUAGCAAUAUUACGGGGG, the “self-splicing fitness (ln)” value is -3.07 ± 0.3 (30 °C) and -2.38 ± 0.26 (37 °C).
In the same order, the values of GCAAAGCAAUAUUACGCCGG are -2.44 ± 0.17 and -1.71 ± 0.2.
In the same order, the values of CCUCAGCAAUAUUACGUGUG are -1.4 ± 0.061 and -0.812 ± 0.062.
In the same order, the values of UGUAAGCAAUAUUACGAUGC are -3.75 ± 0.27 and -2.34 ± 0.28.
UGCGAGCAAUAUUACGUAUU: the “self-splicing fitness (ln)” value reads like this: (30 °C) -3.07 ± 0.17; (37 °C) -2.58 ± 0.2.
On to UCACAGCAAUAUUACGCGUU, for which the “self-splicing fitness (ln)” value by setting is: (30 °C) -4 ± 0.21; (37 °C) -2.13 ± 0.17.
As to AUUUAGCAAUAUUACGUACA, the “self-splicing fitness (ln)” value was -1.7 ± 0.15 (30 °C) and -1.39 ± 0.13 (37 °C).
For CGGAAGCAAUAUUACGUCUU, the “self-splicing fitness (ln)” value runs as follows: (30 °C) -1.67 ± 0.083; (37 °C) -0.53 ± 0.092.
Turning to GUCGAGCAAUAUUACGUCUC, the “self-splicing fitness (ln)” value (30 °C) was -1.76 ± 0.42 and the “self-splicing fitness (ln)” value (37 °C) is -0.346 ± 0.27.
CCCCAGCAAUAUUACGCCGC: the “self-splicing fitness (ln)” value is -2.93 ± 0.31 (30 °C) and -2.26 ± 0.42 (37 °C).
AUAAAGCAAUAUUACGCCAA: the “self-splicing fitness (ln)” value reads like this: (30 °C) -0.625 ± 0.15; (37 °C) -0.34 ± 0.17.
With CGGGAGCAAUAUUACGGCUA, where the note is “30 °C”, the “self-splicing fitness (ln)” value was -2.44 ± 0.39.
For GAGAAGCAAUAUUACGGGAG, the “self-splicing fitness (ln)” value by setting is: (30 °C) -2.12 ± 0.13; (37 °C) -1.63 ± 0.18.
UUGUAGCAAUAUUACGGUUA: the “self-splicing fitness (ln)” value (30 °C) is -1.41 ± 0.14 and the “self-splicing fitness (ln)” value (37 °C) was -0.784 ± 0.13.
In the same order, the values of GCCCAGCAAUAUUACGAGUU are -1.13 ± 0.048 and -0.432 ± 0.066.
On to UUGUAGCAAUAUUACGUCAG, for which the “self-splicing fitness (ln)” value (30 °C) was -1.12 ± 0.22 and the “self-splicing fitness (ln)” value (37 °C) is -0.45 ± 0.19.
Consider GCCCAGCAAUAUUACGGAAU, for which the “self-splicing fitness (ln)” value was -0.828 ± 0.056 (30 °C) and 0.223 ± 0.078 (37 °C).
In the same order, the values of GCUCAGCAAUAUUACGCUUU are -0.857 ± 0.077 and -0.887 ± 0.083.
Take AGGCAGCAAUAUUACGUCCC: the “self-splicing fitness (ln)” value (37 °C) was determined as 0.266 ± 0.3.
For CUUGAGCAAUAUUACGUUAU, the “self-splicing fitness (ln)” value by setting is: (30 °C) -3.45 ± 0.27; (37 °C) -2.77 ± 0.36.
In the case of AACUAGCAAUAUUACGAAAA, the “self-splicing fitness (ln)” value is -1.53 ± 0.16 (30 °C) and -1.75 ± 0.17 (37 °C).
As to GUGGAGCAAUAUUACGCCCU, the “self-splicing fitness (ln)” value was -1.79 ± 0.32 (30 °C) and -1.87 ± 0.26 (37 °C).
Consider GAGGAGCAAUAUUACGGGCA, for which the “self-splicing fitness (ln)” value reads like this: (30 °C) -1.33 ± 0.32; (37 °C) -3.44 ± 0.47.
Consider GUAGAGCAAUAUUACGACAG, for which the “self-splicing fitness (ln)” value (30 °C) is -3.49 ± 0.33 and the “self-splicing fitness (ln)” value (37 °C) was -1.86 ± 0.3.
With UGGCAGCAAUAUUACGCAAC, the “self-splicing fitness (ln)” value by setting is: (30 °C) -2.74 ± 0.18; (37 °C) -2.14 ± 0.39.
In the case of ACGUAGCAAUAUUACGUGUC, the “self-splicing fitness (ln)” value was -3.68 ± 0.32 (30 °C) and -2.48 ± 0.37 (37 °C).
Turning to AGUAAGCAAUAUUACGGGAA, the “self-splicing fitness (ln)” value is -2.13 ± 0.16 (30 °C) and -2.12 ± 0.19 (37 °C).
In the same order, the values of UUUGAGCAAUAUUACGGCUG are -0.955 ± 0.11 and -0.634 ± 0.17.
As for CUGUAGCAAUAUUACGACAA, the “self-splicing fitness (ln)” value runs as follows: (30 °C) -0.568 ± 0.11; (37 °C) 0.0313 ± 0.11.
For the sequence CGCCAGCAAUAUUACGUCUG, the “self-splicing fitness (ln)” value reads like this: (30 °C) -2.97 ± 0.18; (37 °C) -0.917 ± 0.13.
Take AUCAAGCAAUAUUACGUUCC: the “self-splicing fitness (ln)” value is, setting by setting: (30 °C) -2.85 ± 0.13; (37 °C) -0.598 ± 0.17.
Take AUUAAGCAAUAUUACGGACU: the “self-splicing fitness (ln)” value worked out at 0.271 ± 0.11 (30 °C) and 0.324 ± 0.15 (37 °C).
As for CUGAAGCAAUAUUACGUGUU, the “self-splicing fitness (ln)” value (30 °C) is -3.7 ± 0.14 and the “self-splicing fitness (ln)” value (37 °C) was -2.13 ± 0.17.
Regarding UCUAAGCAAUAUUACGUUUU, the “self-splicing fitness (ln)” value was -3.43 ± 0.19 (30 °C) and -3.06 ± 0.29 (37 °C).
As to UCUUAGCAAUAUUACGUGAU, the “self-splicing fitness (ln)” value (30 °C) is -2.43 ± 0.28 and the “self-splicing fitness (ln)” value (37 °C) is -2.01 ± 0.38.
